Numbering of substitutions follows the chain as printed.
T1: hIL-4Rα on cells (human, UniProt P24394 26-825)
T1 sequence: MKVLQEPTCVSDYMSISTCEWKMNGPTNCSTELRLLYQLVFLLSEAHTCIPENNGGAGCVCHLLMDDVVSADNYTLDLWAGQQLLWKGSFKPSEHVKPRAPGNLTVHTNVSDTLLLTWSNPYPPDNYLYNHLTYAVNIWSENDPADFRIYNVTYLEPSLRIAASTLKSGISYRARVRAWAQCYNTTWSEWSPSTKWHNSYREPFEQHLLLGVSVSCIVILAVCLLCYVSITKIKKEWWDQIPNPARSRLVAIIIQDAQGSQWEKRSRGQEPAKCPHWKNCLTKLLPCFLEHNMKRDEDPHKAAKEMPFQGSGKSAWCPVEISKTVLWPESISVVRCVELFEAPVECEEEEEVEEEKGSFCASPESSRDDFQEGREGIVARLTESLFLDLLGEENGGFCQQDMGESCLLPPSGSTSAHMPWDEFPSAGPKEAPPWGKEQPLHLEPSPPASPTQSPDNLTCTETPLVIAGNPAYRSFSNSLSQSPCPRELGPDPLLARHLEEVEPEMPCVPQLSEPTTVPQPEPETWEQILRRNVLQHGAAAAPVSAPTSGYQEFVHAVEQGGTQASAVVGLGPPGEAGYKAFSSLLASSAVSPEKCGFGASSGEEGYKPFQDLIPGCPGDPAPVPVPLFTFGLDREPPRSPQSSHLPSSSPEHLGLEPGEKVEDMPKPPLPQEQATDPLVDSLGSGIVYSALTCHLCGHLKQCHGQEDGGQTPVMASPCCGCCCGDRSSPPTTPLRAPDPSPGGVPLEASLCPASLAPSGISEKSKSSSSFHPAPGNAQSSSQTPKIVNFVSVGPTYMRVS

T2: human IL-4Rα (human, UniProt P24394 26-232)
T2 construct: also called Hu IL-4Rα; hIL-4Rα
T2 sequence: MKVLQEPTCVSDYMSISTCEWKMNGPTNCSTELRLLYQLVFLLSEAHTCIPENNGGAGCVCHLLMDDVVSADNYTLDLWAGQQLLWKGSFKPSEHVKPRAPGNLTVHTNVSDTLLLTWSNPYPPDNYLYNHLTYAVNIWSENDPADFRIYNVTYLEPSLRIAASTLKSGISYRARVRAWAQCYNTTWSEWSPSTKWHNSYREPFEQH

T3: cynomolgus monkey IL-4Rα (cynomolgus monkey, UniProt P24394 26-231 (human entry), limits assumed)
T3 construct: also called Cyno IL-4Rα; cyIL-4Rα
T3 chain: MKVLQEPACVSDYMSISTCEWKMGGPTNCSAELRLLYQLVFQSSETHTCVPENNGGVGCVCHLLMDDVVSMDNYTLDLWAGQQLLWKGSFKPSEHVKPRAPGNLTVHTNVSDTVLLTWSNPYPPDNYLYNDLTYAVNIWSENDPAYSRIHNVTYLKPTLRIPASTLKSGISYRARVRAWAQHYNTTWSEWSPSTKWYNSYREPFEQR

B1: Construct 23 (mAb431) (antibody, V domains shown)
VH: EVQLVESGGGLEQPGGSLRLSCAGSGFTFRDFAMTWVRQAPGKGLEWVSSISGGGGSTYYADSVKGRFTISRDNSKNTLYLQMNSLRAEDTAVYYCAKDRLSVTVRPRYYGLDVWGQGTTVTVSS
VL: DIVMTQSPLSLPVTPGEPASISCRSSQSVLYSIGKNYVDWYLQKSGQSPQLLIYLGSQRATGVPDRFSGSGSGTDFTLKISRVEAEDVGFYYCMQSLTSPYTFGQGTKLEIK
notes: VH/VL only
B2: Construct 27 (mAb435) (antibody, IgG4, V domains shown)
VH: B1 VH with R30T, G54S, S57N, T58K
VL: B1 VL with R24T, S25A, V29L, K35Y, S57N, Q58K, T61S
notes: VH/VL only
B3: Construct 39 (mAb473) (antibody, IgG4, V domains shown)
VH: B1 VH with F32S, G54S, G56D, S57N, V103I
VL: B1 VL with V29L, S57N, Q58K, T61S, S96A, T98G
notes: VH/VL only
B4: Construct 26 (mAb434) (antibody, IgG4, V domains shown)
VH: B1 VH with V103I, T104A
VL: B1 VL with R24T, S25A, V29L, K35Y, S57N, Q58K, T61S
notes: VH/VL only
B5: Construct 33 (mAb450) (antibody, IgG4, V domains shown)
VH: B1 VH with G54S, S57N, T58I, L101V, V103I, V105I
VL: B1 VL with R24T, S25A, V29L, K35Y, Q58K, T61S, S96A, T98G
notes: VH/VL only
B6: Construct 35 (mAb467) (antibody, IgG4, V domains shown)
VH: B1 VH with D31T, F32Y, G54S, S57N, L101V, V103I, V105I
VL: B1 VL with R24T, V29L, L55E, S57N, Q58N
notes: VH/VL only
B7: Construct 37 (mAb470) (antibody, IgG4, V domains shown)
VH: B1 VH with D31T, F32Y, S57N
VL: B1 VL with S25A, V29L, I33V, K35Y, S57N, Q58N, T61S
notes: VH/VL only
B8: Construct 25 (mAb433) (antibody, IgG4, V domains shown)
VH: B1 VH with G54S, G56D, S57N, T58I, V103K, V105I
VL: B1 VL with R24T, S25A, V29L, K35Y, V38L, L55E, S57N, Q58K, T61S
notes: VH/VL only
B9: Construct 36 (mAb469) (antibody, IgG4, V domains shown)
VH: B1 VH with G54S, S57N, T58I, V103K, V105I
VL: B1 VL with V29L, L55E, S57N, Q58N, T61S
notes: VH/VL only
B10: Construct 28 (mAb436) (antibody, IgG4, V domains shown)
VH: B1 VH with I51V, G54S, S57N
VL: B1 VL with R24T, V29L, K35Y, S57N, Q58K, T61S, T98Q, S99T
notes: VH/VL only
B11: Construct 34 (mAb459) (antibody, IgG4, V domains shown)
VH: B1 VH with G54S, G56D, S57N, T58I, V103K, V105I
VL: B1 VL with S28G, V29L, K35Y, S57N, Q58K, T61S, S96A, T98D, S99T
notes: VH/VL only

molecular target: T1, hIL-4Rα on cells; test: FACS on HEK293 cells, competitor biotin-hIL-4;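 also: HEK293 cells stably co-expressing hIL-13Rα and hIL-4Rα, stained for 1 h at 4 °C, read-out as mean fluorescence intensity by flow cytometry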
Protocol: (§1) Briefly, HEK293 previously transduced to stably express both hIL-13Rα and hIL-4Rα were cultured and harvested. Cells were seeded at 200,000 cells in 100 uL per well. Cells were washed and the supernatant discarded. […] The cells were stained in this mixture at 4° C. for 1 hour. […] Cells were incubated 4° C. for 1 hour, protected from light. Cells were then washed and the MFI of cells in each well were recorded by FACS using a BD FACSCanto II. Subsequent data were analyzed using GraphPad Prism.

Relative Blockade of IL-4 Binding IC50	Binder
1.07 relative to dupilumab	B1
0.99 relative to dupilumab	B2
1.09 relative to dupilumab	B3
0.763 relative to dupilumab	B4
1.01 relative to dupilumab	B5
1.29 relative to dupilumab	B6
1.08 relative to dupilumab	B7
1.36 relative to dupilumab	B8
1.18 relative to dupilumab	B9
0.849 relative to dupilumab	B10
1.23 relative to dupilumab	B11

molecular target: T2, human IL-4Rα; test: SPR, Carterra LSA;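 also: antibodies captured on an anti-human Fc sensor chip, antigen injected at several concentrations, association and dissociation rates fitted with a 1:1 Langmuir model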

KD Relative to Dupilumab	Kd	Binder
0.67	0.00762 nM	B1
1.12	0.0126 nM	B2
0.92	0.0104 nM	B3
0.78	0.00883 nM	B4
0.78	0.00875 nM	B5
0.99	0.0112 nM	B6
1.03	0.0116 nM	B7
0.94	0.0107 nM	B8
0.99	0.0112 nM	B9
0.69	0.00777 nM	B10
1.01	0.0114 nM	B11

Molecular target: T3, cynomolgus monkey IL-4Rα
Test: SPR, Carterra LSA;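 also: antibodies captured on an anti-human Fc sensor chip, antigen injected at several concentrations, association and dissociation rates fitted with a 1:1 Langmuir model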

KD Relative to Dupilumab	Kd	Binder
0.1	63.3 nM	B1
0.28	176 nM	B2
0.27	168 nM	B3
0.26	166 nM	B4
0.05	33.9 nM	B5
0.29	180 nM	B6
0.23	143 nM	B7
1.12	703 nM	B8
0.61	385 nM	B9
0.09	54.7 nM	B10
0.53	334 nM	B11

molecular target: T1, hIL-4Rα on cells; test: cell-based or functional assay

Relative Inhibition of IL-4 induced TARC IC50	Relative Inhibition of IL-13 induced TARC IC50	Binder
0.557 relative to dupilumab	0.579 relative to dupilumab	B1
0.547 relative to dupilumab	1.83 relative to dupilumab	B2
1.65 relative to dupilumab	5.23 relative to dupilumab	B3
0.763 relative to dupilumab	1.73 relative to dupilumab	B4
3.2 relative to dupilumab	1.07 relative to dupilumab	B5
1.92 relative to dupilumab	1.65 relative to dupilumab	B6
1.16 relative to dupilumab	0.868 relative to dupilumab	B7
1.17 relative to dupilumab	1.78 relative to dupilumab	B8
1.78 relative to dupilumab	0.999 relative to dupilumab	B9
0.58 relative to dupilumab	1.81 relative to dupilumab	B10
4.32 relative to dupilumab	1.35 relative to dupilumab	B11

molecular target: T1, hIL-4Rα on cells; test: cell-based or functional assay; remark: another data set of the same source

Relative Inhibition of IL-4 induced TF-1 Proliferation IC50	Relative Inhibition of IL-13 induced TF-1 Proliferation IC50	Binder
0.823 relative to dupilumab	0.732 relative to dupilumab	B1
0.962 relative to dupilumab	0.773 relative to dupilumab	B2
1.18 relative to dupilumab	1.21 relative to dupilumab	B3
0.7 relative to dupilumab	0.83 relative to dupilumab	B4
1.05 relative to dupilumab	0.926 relative to dupilumab	B5
0.948 relative to dupilumab	1.11 relative to dupilumab	B6
0.943 relative to dupilumab	0.919 relative to dupilumab	B7
2.04 relative to dupilumab	1.31 relative to dupilumab	B8
1.05 relative to dupilumab	1.25 relative to dupilumab	B9
1.19 relative to dupilumab	0.634 relative to dupilumab	B10
1.46 relative to dupilumab	1.55 relative to dupilumab	B11

molecular target: T1, hIL-4Rα on cells; test: cell-based or functional assay; remark: another data set of the same source

Relative Inhibition of IL-4 induced pSTAT6 IC50	Relative Inhibition of IL-13 induced pSTAT6 IC50	Binder
0.483 relative to dupilumab	0.475 relative to dupilumab	B1
0.676 relative to dupilumab	0.38 relative to dupilumab	B2
0.81 relative to dupilumab	2.17 relative to dupilumab	B3
0.661 relative to dupilumab	0.627 relative to dupilumab	B4
0.888 relative to dupilumab	1.59 relative to dupilumab	B5
0.766 relative to dupilumab	2.71 relative to dupilumab	B6
0.713 relative to dupilumab	1.22 relative to dupilumab	B7
1.33 relative to dupilumab	1.82 relative to dupilumab	B8
0.957 relative to dupilumab	2.16 relative to dupilumab	B9
0.999 relative to dupilumab	0.497 relative to dupilumab	B10
0.464 relative to dupilumab	2.42 relative to dupilumab	B11

molecular target: T1, hIL-4Rα on cells; test: FACS on HEK293 cells, competitor biotin-hIL-13;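 also: stably transduced cells co-expressing both receptor chains, stained cold, with cell-bound signal read as mean fluorescence intensity by flow cytometry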
Protocol: as §1

Relative Blockade of IL-13 Binding IC50	Binder
0.793 relative to dupilumab	B1
0.592 relative to dupilumab	B2
1.05 relative to dupilumab	B3
0.486 relative to dupilumab	B4
1.21 relative to dupilumab	B5
1.25 relative to dupilumab	B6
1.05 relative to dupilumab	B7
1.09 relative to dupilumab	B8
1.22 relative to dupilumab	B9
0.611 relative to dupilumab	B10
1.21 relative to dupilumab	B11

From patent publication US20260193366A1 (APOGEE THERAPEUTICS, published 2026)
